The star is where a group is joined. Palmitoyl = CCCCCCCCCCCCCCCC(=O)*
Target: T1, human PAR1 (thrombin receptor) on human platelets (human, UniProt P25116 42-425)
T1 sequence (looked up): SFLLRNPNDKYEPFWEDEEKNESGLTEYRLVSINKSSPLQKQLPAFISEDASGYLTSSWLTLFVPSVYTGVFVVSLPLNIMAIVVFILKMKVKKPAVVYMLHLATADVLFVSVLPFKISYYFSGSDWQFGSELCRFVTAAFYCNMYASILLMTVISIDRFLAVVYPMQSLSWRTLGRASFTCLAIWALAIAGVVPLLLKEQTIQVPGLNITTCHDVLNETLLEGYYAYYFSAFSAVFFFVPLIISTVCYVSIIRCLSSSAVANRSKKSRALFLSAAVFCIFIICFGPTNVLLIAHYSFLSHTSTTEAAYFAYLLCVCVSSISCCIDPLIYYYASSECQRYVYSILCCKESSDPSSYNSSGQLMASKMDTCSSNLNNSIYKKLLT
Test: cell-based or functional assay

Palmitoyl-KKSRALF-NH2 (also: acetate salt) [PZ-128 (palmitate-KKSRALF-NH2)]
right shift of thrombin-induced aggregation of human platelets: 5 fold

From patent US20150216990A1 (TUFTS MEDICAL CENTER, published 2015)
